The target in assay [1] is native PhoA (E. coli) [phosphatase: P00634]. Kind of assay: native MS.
The target of assay [2] is wild-type SecA-SecYEG translocase (SecA bound to SecYEG-inverted inner membrane vesicles) (E. coli) (UniProt P10408). Put plainly: co-sedimentation.
The target of assay [3] is SecA(LCt) (locked C-tail) bound to SecYEG-inverted membrane vesicles (E. coli) (UniProt P10408). Put plainly: co-sedimentation.
The target of assay [4] is wild-type SecA-SecYEG translocase (SecA bound to SecYEG-inverted inner membrane vesicles) (E. coli, UniProt P10408;P0AGA2;P0AG96;P0AG99). Kind of assay: co-sedimentation.

In PMC5412566 (The Journal of Cell Biology, 2017) one finds stoichiometry N, Kd and fold reduction of affinity against the wild-type translocase data, which are given here for six molecules.

Chain of wild-type SecA-SecYEG translocase (SecA bound to SecYEG-inverted inner membrane vesicles) (E. coli) (P10408 whole entry, chain 1 of 4): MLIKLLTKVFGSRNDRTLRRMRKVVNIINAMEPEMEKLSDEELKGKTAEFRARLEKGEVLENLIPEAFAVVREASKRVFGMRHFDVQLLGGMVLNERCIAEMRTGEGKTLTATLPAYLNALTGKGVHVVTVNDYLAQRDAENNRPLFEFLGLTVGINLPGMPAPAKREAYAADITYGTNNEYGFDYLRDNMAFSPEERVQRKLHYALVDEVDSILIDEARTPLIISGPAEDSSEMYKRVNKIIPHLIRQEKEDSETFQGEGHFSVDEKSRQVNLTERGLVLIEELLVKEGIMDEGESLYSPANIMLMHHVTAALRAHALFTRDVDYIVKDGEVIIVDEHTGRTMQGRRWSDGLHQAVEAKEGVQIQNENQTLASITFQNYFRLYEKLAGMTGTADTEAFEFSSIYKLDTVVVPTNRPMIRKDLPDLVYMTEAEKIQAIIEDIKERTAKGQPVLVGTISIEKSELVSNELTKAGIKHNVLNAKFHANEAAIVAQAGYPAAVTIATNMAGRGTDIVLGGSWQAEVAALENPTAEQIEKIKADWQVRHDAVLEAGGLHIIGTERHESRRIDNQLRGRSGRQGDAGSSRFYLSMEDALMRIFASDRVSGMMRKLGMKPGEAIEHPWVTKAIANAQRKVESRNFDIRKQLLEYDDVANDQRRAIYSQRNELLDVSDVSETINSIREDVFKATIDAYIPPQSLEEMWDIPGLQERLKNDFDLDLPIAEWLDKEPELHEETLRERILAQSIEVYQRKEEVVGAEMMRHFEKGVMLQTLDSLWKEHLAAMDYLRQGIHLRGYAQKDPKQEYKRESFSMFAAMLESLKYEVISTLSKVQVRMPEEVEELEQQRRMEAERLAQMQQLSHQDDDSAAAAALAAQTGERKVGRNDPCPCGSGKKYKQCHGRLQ
Chain of wild-type SecA-SecYEG translocase (SecA bound to SecYEG-inverted inner membrane vesicles) (E. coli) (P0AGA2 whole entry, chain 2 of 4, further chain): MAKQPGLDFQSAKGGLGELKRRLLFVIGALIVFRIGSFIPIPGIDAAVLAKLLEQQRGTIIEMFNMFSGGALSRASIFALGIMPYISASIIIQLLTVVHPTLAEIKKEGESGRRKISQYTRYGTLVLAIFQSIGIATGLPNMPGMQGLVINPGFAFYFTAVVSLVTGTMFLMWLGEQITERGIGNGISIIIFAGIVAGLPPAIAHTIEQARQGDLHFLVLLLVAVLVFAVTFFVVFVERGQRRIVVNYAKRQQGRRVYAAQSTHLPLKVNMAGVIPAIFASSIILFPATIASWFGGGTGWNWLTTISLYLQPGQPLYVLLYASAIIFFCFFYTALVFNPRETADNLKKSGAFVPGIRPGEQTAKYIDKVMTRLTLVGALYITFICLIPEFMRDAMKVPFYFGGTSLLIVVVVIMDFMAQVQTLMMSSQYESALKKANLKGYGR
Chain of wild-type SecA-SecYEG translocase (SecA bound to SecYEG-inverted inner membrane vesicles) (E. coli) (P0AG96 whole entry, chain 3 of 4, further chain): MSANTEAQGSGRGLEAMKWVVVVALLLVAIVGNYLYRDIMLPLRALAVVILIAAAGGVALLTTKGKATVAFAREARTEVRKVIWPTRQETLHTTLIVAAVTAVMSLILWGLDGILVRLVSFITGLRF
Chain of wild-type SecA-SecYEG translocase (SecA bound to SecYEG-inverted inner membrane vesicles) (E. coli) (P0AG99 whole entry, chain 4 of 4, further chain): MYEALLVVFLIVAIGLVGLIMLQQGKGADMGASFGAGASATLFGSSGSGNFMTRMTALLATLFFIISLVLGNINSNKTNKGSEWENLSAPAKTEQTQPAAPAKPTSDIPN
Chain of Lpp(noMTS) (P69776 21-78): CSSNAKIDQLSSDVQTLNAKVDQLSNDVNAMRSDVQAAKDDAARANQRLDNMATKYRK
Chain of PhoA (mature domain of proPhoA, signal peptide-less, urea-purified) (P00634 22-471): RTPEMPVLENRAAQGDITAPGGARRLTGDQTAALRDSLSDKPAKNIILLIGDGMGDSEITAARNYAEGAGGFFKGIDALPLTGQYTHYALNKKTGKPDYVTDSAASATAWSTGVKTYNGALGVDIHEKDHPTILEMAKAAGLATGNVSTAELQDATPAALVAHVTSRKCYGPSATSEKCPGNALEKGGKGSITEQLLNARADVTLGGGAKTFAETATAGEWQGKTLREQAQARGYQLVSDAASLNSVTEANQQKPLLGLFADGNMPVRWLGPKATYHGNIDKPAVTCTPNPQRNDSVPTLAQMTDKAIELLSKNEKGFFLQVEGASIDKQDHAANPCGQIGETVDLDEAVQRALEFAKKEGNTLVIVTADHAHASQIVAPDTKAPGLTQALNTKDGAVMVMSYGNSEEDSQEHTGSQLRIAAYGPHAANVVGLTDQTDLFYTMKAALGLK
Chain of wild-type SecA-SecYEG translocase (SecA bound to SecYEG-inverted inner membrane vesicles) (P10408 whole entry, chain 1 of 4): as the sequence (P10408 whole entry, chain 1 of 4) above
Chain of wild-type SecA-SecYEG translocase (SecA bound to SecYEG-inverted inner membrane vesicles) (P0AGA2 whole entry, chain 2 of 4): as the sequence (P0AGA2 whole entry, chain 2 of 4, further chain) above
Chain of wild-type SecA-SecYEG translocase (SecA bound to SecYEG-inverted inner membrane vesicles) (P0AG96 whole entry, chain 3 of 4): as the sequence (P0AG96 whole entry, chain 3 of 4, further chain) above
Chain of wild-type SecA-SecYEG translocase (SecA bound to SecYEG-inverted inner membrane vesicles) (P0AG99 whole entry, chain 4 of 4): as the sequence (P0AG99 whole entry, chain 4 of 4, further chain) above
Chain of SecA(LCt) (locked C-tail) bound to SecYEG-inverted membrane vesicles (E. coli) (P10408 whole entry, chain 1 of 4): as the sequence (P10408 whole entry, chain 1 of 4) above
Chain of SecA(LCt) (locked C-tail) bound to SecYEG-inverted membrane vesicles (E. coli) (P0AGA2 whole entry, chain 2 of 4, further chain): as the sequence (P0AGA2 whole entry, chain 2 of 4, further chain) above
Chain of SecA(LCt) (locked C-tail) bound to SecYEG-inverted membrane vesicles (E. coli) (P0AG96 whole entry, chain 3 of 4, further chain): as the sequence (P0AG96 whole entry, chain 3 of 4, further chain) above
Chain of SecA(LCt) (locked C-tail) bound to SecYEG-inverted membrane vesicles (E. coli) (P0AG99 whole entry, chain 4 of 4, further chain): as the sequence (P0AG99 whole entry, chain 4 of 4, further chain) above
Chain of HdeA(noMTS) (P0AES9 22-110): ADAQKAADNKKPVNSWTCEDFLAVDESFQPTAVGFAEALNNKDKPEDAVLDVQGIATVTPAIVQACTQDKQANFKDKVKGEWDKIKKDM
Chain of YncJ(noMTS) (P64459 23-76): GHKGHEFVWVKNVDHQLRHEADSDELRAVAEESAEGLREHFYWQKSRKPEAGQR

For orientation: stoichiometry N means the number of molecules, sites or subunits per partner or assembly. For “native PhoA (from UniProt P00634 22-471) (enzyme)”, the stoichiometry N in assay [1] was found to be 2. Broadly, the Kd is a measure of binding affinity in units of concentration. In assay [2], “Lpp(noMTS) (from UniProt P69776 21-78) (natural protein)” yielded a Kd of over 20 µM.

As for “PhoA (mature domain of proPhoA, signal peptide-less, urea-purified) (from UniProt P00634 22-471) (natural protein)”, in assay [3], the fold reduction of affinity against the wild-type translocase is 18 fold. Molecule “YncJ(noMTS) (from UniProt P64459 23-76) (natural protein)” showed a Kd in assay [2] of over 20 µM. Turning to “HdeA(noMTS) (from UniProt P0AES9 22-110) (natural protein)”, the Kd in assay [2] is over 20 µM.

For the molecule MKQSTIALALLPLLFTPVTKARTPEMPVLE [signal peptide of proPhoA, proPhoA(1–30)], the dissociation constant (Kd) in assay [4] was about 3 µM.
